# Source: IntAct's records for PubMed 19017798
# B1: Latent membrane protein 1 (Epstein-Barr virus (strain B95-8) (HHV-4)), P03230 (parent)
# chain: MEHDLERGPPGPRRPPRGPPLSSSLGLALLLLLLALLFWLYIVMSDWTGGALLVLYSFALMLIIIILIIFIFRRDLLCPLGALCILLLMITLLLIALWNLHGQALFLGIVLFIFGCLLVLGIWIYLLEMLWRLGATIWQLLAFFLAFFLDLILLIIALYLQQNWWTLLVDLLWLLLFLAILIWMYYHGQRHSDEHHHDDSLPHPQQATDDSGHESDSNSNEGRHHLLVSGAGDGPPLCSQNLGAPGGGPDNGPQDPDNTDDNGPQDPDNTDDNGPHDPLPQDPDNTDDNGPQDPDNTDDNGPHDPLPHSPSDSAGNDGGPPQLTEEVENKGGDQGPPLMTDGGGGHSHDSGHGGGDPHLPTLLLGSSGSGGDDDDPHGPVQLSYYD
# partner: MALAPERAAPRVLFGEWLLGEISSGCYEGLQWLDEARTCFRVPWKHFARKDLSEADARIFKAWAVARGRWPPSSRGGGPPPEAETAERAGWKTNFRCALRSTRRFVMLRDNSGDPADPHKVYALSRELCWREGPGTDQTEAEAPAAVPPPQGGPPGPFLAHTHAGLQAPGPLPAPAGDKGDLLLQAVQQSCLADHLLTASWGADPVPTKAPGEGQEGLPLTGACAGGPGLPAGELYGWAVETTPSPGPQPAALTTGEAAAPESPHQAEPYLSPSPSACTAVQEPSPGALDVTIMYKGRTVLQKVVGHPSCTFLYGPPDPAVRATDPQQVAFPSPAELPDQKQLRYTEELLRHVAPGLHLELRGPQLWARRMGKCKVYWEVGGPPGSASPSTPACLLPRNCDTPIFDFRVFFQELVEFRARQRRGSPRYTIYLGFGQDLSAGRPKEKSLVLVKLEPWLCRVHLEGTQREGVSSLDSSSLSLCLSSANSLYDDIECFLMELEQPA
# Variants of: B1
# Details: with IRF7, Q92985-1
row,Variant,effect of a mutation on the interaction
1,P376A;H377A;G378A;P379A;V380A;Q381A;L382A;S383A,disrupting interaction
